According to PMC3666314:

Target: biotinylated PECAM-1 Y663,pY686 peptide (human)
Assay: flow cytometry bead-based binding assay

- binding relative to the Lyn SH2 domain: 2 fold
B1: GST fusion protein containing the SH2 domain of Csk (domain or fragment)
chain: WFHGKITREQAERLLYPPETGLFLVRESTNYPGDYTLCVSCDGKVEHYRIMYHASKLSIDEEVYFENLMQLVEHYTSDADGLCTRLIKPK
